How the values were obtained:
Assay in all cases: cell-based or functional assay
[1] = target: HIV-1 IAVI-C22 Env (HIV-1)
[2] = target: HIV-1 MGRM-D-012 Env (HIV-1)
[3] = target: HIV-1 MGRM-C-008 Env on pseudovirus (HIV-1)
[4] = target: HIV-1 MGRM-F1-018 Env (HIV-1)
[5] = target: HIV-1 SC422661.8 (Acute) Env on pseudovirus (HIV-1)
[6] = target: HIV-1 MGRM-AG-002 Env (HIV-1)
[7] = target: HIV-1 MGRM-D-026 Env (HIV-1)
[8] = target: HIV-1 MGRM-C-024 Env on pseudovirus (HIV-1)
[9] = target: HIV-1 MGRM-C-014 Env on pseudovirus (HIV-1)
[10] = target: HIV-1 APV_13 Env on pseudovirus (HIV-1)
[11] = target: HIV-1 MGRM-C-012 Env on pseudovirus (HIV-1)
[12] = target: HIV-1 MGRM-G-027 Env (HIV-1)
[13] = target: HIV-1 94UG114 Env (HIV-1)
aMLV envelope = target: aMLV envelope
[14] = target: HIV-1 MGRM-AE-007 Env (HIV-1)
[15] = target: HIV-1 MGRM-C-023 Env on pseudovirus (HIV-1)
[16] = target: HIV-1 MGRM-G-014 Env (HIV-1)
[17] = target: HIV-1 MGRM-Chronic-B-001 Env on pseudovirus (HIV-1)
[18] = target: HIV-1 LAVI_C22 Env on pseudovirus (HIV-1)
[19] = target: HIV-1 MGRM-G-011 Env (HIV-1)
[20] = target: HIV-1 MGRM-G-009 Env (HIV-1)
[21] = target: HIV-1 MGRM-AE-005 Env (HIV-1)
[22] = target: HIV-1 MGRM-C-007 Env on pseudovirus (HIV-1)
[23] = target: HIV-1 MGRM-C-020 Env on pseudovirus (HIV-1)
[24] = target: HIV-1 MGRM-C-022 Env on pseudovirus (HIV-1)
[25] = target: HIV-1 MGRM-F1-010 Env (HIV-1)
[26] = target: HIV-1 MGRM-AG-011 Env (HIV-1)
[27] = target: HIV-1 MGRM-AG-006 Env (HIV-1)
[28] = target: HIV-1 MGRM-D-004 Env (HIV-1)
[29] = target: HIV-1 MGRM-F1-012 Env (HIV-1)
[30] = target: HIV-1 MGRM-G-013 Env (HIV-1)
[31] = target: HIV-1 98CN006 Env on pseudovirus (HIV-1)
[32] = target: HIV-1 PVO.4 (Acute) Env on pseudovirus (HIV-1)
[33] = target: HIV-1 MGRM-AE-003 Env (HIV-1)
[34] = target: HIV-1 MGRM-Chronic-B-012 Env on pseudovirus (HIV-1)
[35] = target: HIV-1 92UG046 Env (HIV-1)
[36] = target: HIV-1 MGRM-D-024 Env (HIV-1)
[37] = target: HIV-1 MGRM-C-019 Env on pseudovirus (HIV-1)
[38] = target: HIV-1 97ZA012 Env on pseudovirus (HIV-1)
[39] = target: HIV-1 MGRM-F1-008 Env (HIV-1)
[40] = target: HIV-1 IAVI-C18 Env (HIV-1)
[41] = target: HIV-1 93IN905 Env (HIV-1)
[42] = target: HIV-1 MGRM-F1-006 Env (HIV-1)
[43] = target: HIV-1 MGRM-Chronic-B-018 Env on pseudovirus (HIV-1)
[44] = target: HIV-1 MGRM-G-025 Env (HIV-1)
[45] = target: HIV-1 MGRM-C-001 Env on pseudovirus (HIV-1)
[46] = target: HIV-1 MGRM-Chronic-B-023 Env on pseudovirus (HIV-1)
[47] = target: HIV-1 MGRM-AG-001 Env (HIV-1)
[48] = target: HIV-1 MGRM-G-015 Env (HIV-1)
[49] = target: HIV-1 THR0.18 (Acute) Env on pseudovirus (HIV-1)
HIV-1 APV-17 Env (HIV-1) = target: HIV-1 APV-17 Env (HIV-1)
[50] = target: HIV-1 MGRM-D-016 Env (HIV-1)

## 2F5 (antibody)
[1]
  neutralization IC50: > 50 µg/mL
  neutralization IC90: > 50 µg/mL
[2]
  IC50 (µg/ml), pseudovirus neutralization: 1.7 µg/mL
[3]
  IC50: > 50 µg/mL
[4]
  IC50 (pseudovirus neutralization): 3.91 µg/mL
[5]
  IC50: > 50 µg/mL
[6]
  IC50 (µg/ml), pseudovirus neutralization: 0.54 µg/mL
[7]
  IC50 (µg/ml), pseudovirus neutralization: 4.37 µg/mL
[8]
  IC50: > 50 µg/mL
[9]
  IC50: > 50 µg/mL
[10]
  IC50: 3.81 µg/mL
[11]
  IC50: > 50 µg/mL
[12]
  IC50 (µg/ml), pseudovirus neutralization: 0.28 µg/mL
[13]
  IC50 (µg/ml), pseudovirus neutralization: > 50 µg/mL
aMLV envelope
  neutralization IC50: > 50 µg/mL
  neutralization IC90: > 50 µg/mL
[14]
  IC50 (µg/ml), pseudovirus neutralization: 0.07 µg/mL
[15]
  IC50: > 50 µg/mL
[16]
  IC50 (µg/ml), pseudovirus neutralization: 9.65 µg/mL
[17]
  IC50: 0.55 µg/mL
[18]
  IC50: > 50 µg/mL
[19]
  IC50 (µg/ml), pseudovirus neutralization: 1.16 µg/mL
[20]
  IC50 (µg/ml), pseudovirus neutralization: 7.21 µg/mL
[21]
  IC50 (µg/ml), pseudovirus neutralization: 0.14 µg/mL
[22]
  IC50: > 50 µg/mL
[23]
  IC50: > 50 µg/mL
[24]
  IC50: > 50 µg/mL
[25]
  IC50 (pseudovirus neutralization): 14.6 µg/mL
[26]
  IC50 (µg/ml), pseudovirus neutralization: > 50 µg/mL
[27]
  IC50 (µg/ml), pseudovirus neutralization: 0.85 µg/mL
[28]
  IC50 (µg/ml), pseudovirus neutralization: 2.3 µg/mL
[29]
  IC50 (pseudovirus neutralization): > 50 µg/mL
[30]
  IC50 (µg/ml), pseudovirus neutralization: 0.59 µg/mL
[31]
  IC50: > 50 µg/mL
[32]
  IC50: > 50 µg/mL
[33]
  IC50 (µg/ml), pseudovirus neutralization: 0.24 µg/mL
[34]
  IC50: 17.6 µg/mL
[35]
  IC50 (µg/ml), pseudovirus neutralization: > 50 µg/mL
[36]
  IC50 (µg/ml), pseudovirus neutralization: > 50 µg/mL
[37]
  IC50: > 50 µg/mL
[38]
  IC50: > 50 µg/mL
[39]
  IC50 (pseudovirus neutralization): 1.61 µg/mL
[40]
  neutralization IC50: > 50 µg/mL
[41]
  neutralization IC50: > 50 µg/mL
  neutralization IC90: > 50 µg/mL
[42]
  IC50 (pseudovirus neutralization): 1.1 µg/mL
[43]
  IC50: 10.8 µg/mL
[44]
  IC50 (µg/ml), pseudovirus neutralization: > 50 µg/mL
[45]
  IC50: > 50 µg/mL
[46]
  IC50: 0.1 µg/mL
[47]
  IC50 (µg/ml), pseudovirus neutralization: 0.75 µg/mL
[48]
  IC50 (µg/ml), pseudovirus neutralization: 0.43 µg/mL
[49]
  IC50: > 50 µg/mL
HIV-1 APV-17 Env (HIV-1)
  neutralization IC50: 2 µg/mL
[50]
  IC50 (µg/ml), pseudovirus neutralization: 9.85 µg/mL

## 2G12 (antibody)
[1]
  neutralization IC50: > 50 µg/mL
  neutralization IC90: > 50 µg/mL
[2]
  IC50 (µg/ml), pseudovirus neutralization: > 50 µg/mL
[3]
  IC50: > 50 µg/mL
[4]
  IC50 (pseudovirus neutralization): > 50 µg/mL
[5]
  IC50: 0.84 µg/mL
[6]
  IC50 (µg/ml), pseudovirus neutralization: 0.54 µg/mL
[7]
  IC50 (µg/ml), pseudovirus neutralization: > 50 µg/mL
[8]
  IC50: > 50 µg/mL
[9]
  IC50: > 50 µg/mL
[10]
  IC50: 9.24 µg/mL
[11]
  IC50: > 50 µg/mL
[12]
  IC50 (µg/ml), pseudovirus neutralization: > 50 µg/mL
[13]
  IC50 (µg/ml), pseudovirus neutralization: 13.9 µg/mL
aMLV envelope
  neutralization IC50: > 50 µg/mL
  neutralization IC90: > 50 µg/mL
[14]
  IC50 (µg/ml), pseudovirus neutralization: > 50 µg/mL
[15]
  IC50: > 50 µg/mL
[16]
  IC50 (µg/ml), pseudovirus neutralization: > 50 µg/mL
[17]
  IC50: 0.08 µg/mL
[18]
  IC50: > 50 µg/mL
[19]
  IC50 (µg/ml), pseudovirus neutralization: > 50 µg/mL
[20]
  IC50 (µg/ml), pseudovirus neutralization: > 50 µg/mL
[21]
  IC50 (µg/ml), pseudovirus neutralization: > 50 µg/mL
[22]
  IC50: > 50 µg/mL
[23]
  IC50: 18.6 µg/mL
[24]
  IC50: > 50 µg/mL
[26]
  IC50 (µg/ml), pseudovirus neutralization: > 50 µg/mL
[27]
  IC50 (µg/ml), pseudovirus neutralization: 3.92 µg/mL
[28]
  IC50 (µg/ml), pseudovirus neutralization: > 50 µg/mL
[29]
  IC50 (pseudovirus neutralization): 1.81 µg/mL
[30]
  IC50 (µg/ml), pseudovirus neutralization: > 50 µg/mL
[31]
  IC50: > 50 µg/mL
[32]
  IC50: 0.8 µg/mL
[33]
  IC50 (µg/ml), pseudovirus neutralization: > 50 µg/mL
[34]
  IC50: 0.22 µg/mL
[35]
  IC50 (µg/ml), pseudovirus neutralization: > 50 µg/mL
[36]
  IC50 (µg/ml), pseudovirus neutralization: > 50 µg/mL
[37]
  IC50: > 50 µg/mL
[38]
  IC50: > 50 µg/mL
[39]
  IC50 (pseudovirus neutralization): > 50 µg/mL
[40]
  neutralization IC50: > 50 µg/mL
  neutralization IC90: > 50 µg/mL
[41]
  neutralization IC50: > 50 µg/mL
  neutralization IC90: > 50 µg/mL
[42]
  IC50 (pseudovirus neutralization): > 50 µg/mL
[43]
  IC50: > 50 µg/mL
[44]
  IC50 (µg/ml), pseudovirus neutralization: 31.9 µg/mL
[45]
  IC50: 2.93 µg/mL
[46]
  IC50: 0.16 µg/mL
[47]
  IC50 (µg/ml), pseudovirus neutralization: 0.69 µg/mL
[48]
  IC50 (µg/ml), pseudovirus neutralization: > 50 µg/mL
[49]
  IC50: > 50 µg/mL
HIV-1 APV-17 Env (HIV-1)
  neutralization IC50: > 50 µg/mL
[50]
  IC50 (µg/ml), pseudovirus neutralization: > 50 µg/mL
